Measured values from paper PMC11852716, “c-di-GMP phosphodiesterase ProE interacts with quorum sensing protein PqsE to promote pyocyanin production in Pseudomonas aeruginosa” (mSphere, 2025).

What was measured:
Conditions in all cases: both partners purified
[1] = molecular target: T1, c-di-GMP phosphodiesterase ProE (Pseudomonas aeruginosa, UniProt Q9HTQ9 1-558); test: SPR; Biacore T200, 25°C, PBST pH 7.4; PqsE amine-coupled on CM5 chip, ProE injected with 10 mM Mg2+
T1 construct: ProE, c-di-GMP phosphodiesterase of Pseudomonas aeruginosa PAO1; also called PDE ProE
T1 sequence: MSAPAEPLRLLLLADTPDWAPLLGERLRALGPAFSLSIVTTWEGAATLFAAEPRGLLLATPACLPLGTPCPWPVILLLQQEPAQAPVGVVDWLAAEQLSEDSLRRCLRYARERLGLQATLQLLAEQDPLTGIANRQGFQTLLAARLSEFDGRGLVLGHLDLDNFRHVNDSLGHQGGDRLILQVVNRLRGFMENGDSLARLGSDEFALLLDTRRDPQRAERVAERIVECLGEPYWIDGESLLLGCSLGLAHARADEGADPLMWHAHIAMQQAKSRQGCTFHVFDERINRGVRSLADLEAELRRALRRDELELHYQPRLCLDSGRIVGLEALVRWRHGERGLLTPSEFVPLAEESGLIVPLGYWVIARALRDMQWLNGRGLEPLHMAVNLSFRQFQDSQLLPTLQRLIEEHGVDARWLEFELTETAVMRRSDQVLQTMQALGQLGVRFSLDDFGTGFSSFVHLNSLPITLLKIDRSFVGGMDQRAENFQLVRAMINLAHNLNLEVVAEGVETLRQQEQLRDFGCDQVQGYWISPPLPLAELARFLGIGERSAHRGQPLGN

[2] = molecular target: T1, c-di-GMP phosphodiesterase ProE; test: SPR; Biacore T200, 25°C, PBST pH 7.4; PqsE amine-coupled on CM5 chip, ProE injected with 100 µM c-di-GMP
[3] = molecular target: T1, c-di-GMP phosphodiesterase ProE; test: SPR; Biacore T200, 25°C, PBST pH 7.4; PqsE amine-coupled on CM5 chip (8,000 RU), ProE injected; 1:1 Langmuir or steady-state affinity model
[4] = molecular target: T1, c-di-GMP phosphodiesterase ProE; test: ITC; MicroCal VP-ITC, 25°C; ProE (printed 'Thirty micrometers') in the cell titrated with 300 µM PqsE; PBS with 5 mM β-mercaptoethanol; single set of identical sites model

B1: PQS quorum sensing protein PqsE (natural protein)
chain: MLRLSAPGQLDDDLCLLGDVQVPVFLLRLGEASWALVEGGISRDAELVWADLCRWVADPSQVHYWLITHKHYDHCGLLPYLCPRLPNVQVLASERTCQAWKSESAVRVVERLNRQLLRAEQRLPEACAWDALPVRAVADGEWLELGPRHRLQVIEAHGHSDDHVVFYDVRRRRLFCGDALGEFDEAEGVWRPLVFDDMEAYLESLERLQRLPTLLQLIPGHGGLLRGRLAADGAESAYTECLRLCRRLLWRQSMGESLDELSEELHRAWGGQSVDFLPGELHLGSMRRMLEILSRQALPLD
notes: PqsE of the PQS quorum sensing system, Pseudomonas aeruginosa PAO1; DNA fragment encoding pqsE cloned into pET28b(+); source: E. coli BL21(DE3), pET28b(+), purified (Ni-NTA)
- Kd [1]: 2270 nM
- Kd [2]: 2210 nM
- Kd [3]: 3210 nM
- Kd [4]: 5460 nM
